Experimental data taken from patent US20220185874A1 (ROCHE DIAGNOSTICS OPERATIONS, published 2022).

Columns and labels:
human cardiac troponin T [1] = molecular target: T1, human cardiac troponin T (human, UniProt P45379 2-298); test: SPR (Biacore 8K), 37 C, Fab captured from E. coli lysate by anti-mouse F(ab')2, recombinant human TnT as analyte
T1 construct: Analyte in SPR was 'Recombinant human TnT (Roche, 37 kDa)'; also called cTnT; TnT
Protocol: Detailed kinetic investigations were performed at 37° C. on a GE Healthcare 8k instrument. A Biacore CM-5 series S sensor was mounted into the instrument and was preconditioned according to the manufacturer's instructions. The system buffer was HBS-ET (10 mM HEPES (pH 7.4), 150 mM NaCl, 1 mM EDTA, 0.05% (w/v) Tween® 20). The sample buffer was the system buffer supplemented with 1 mg/ml CMD (Carboxymethyldextran, Fluka). In one embodiment an anti-murine Fab fragment capture system was established on the CM5 biosensor. The rabbit polyclonal pAb anti M-IgG, F(ab′)₂ fragment (Cat. No. 315-005-047, Jackson Immuno Research) was immobilized according to the manufacturer's instructions using NHS/EDC chemistry. At 5 μl/min, 30 μg/ml RAMF(ab′)₂ in 10 mM sodium acetate buffer (pH 5.0) were immobilized at 10.000 RU on each flow cell. The sensor was subsequently saturated with 1 M ethanolamine pH 8.5. […] Recombinant human TnT (Roche, 37 kDa) was diluted in sample buffer at 30 nM and a concentration series was produced with 0 nM, 30 nM, 10 nM, 3.3 nM, 1.1 nM, 0.37 nM TnT concentration. The analyte concentration series were injected at 80 μl/min for 3 min association phase and the dissociation phase was monitored for 5 min. At the end of the analyte association phase a report point, “binding late” (BL) in response units (RU) was monitored. After each cycle of kinetic rates determination, the capture system was regenerated by a 15 seconds injection of 10-fold concentrated HBS-EP buffer followed by two 1 min injections of 100 mM HCl at 20 μl/min.

human cardiac troponin T [2] = molecular target: T1, human cardiac troponin T; test: Elecsys ECL sandwich immunoassay, calibrator Cal2 (recTnT), reference: biotinylated wild type Fab of MAB11-7
Protocol: (§1) The antibody Fab fragment mAb<TnT>rM-11-7(A102W)-Fab(IgG1)-Qtag was produced as a biotinylated Fab fragment, i.e., mAb<TnT>rM-11-7(A102W)-Fab(IgG1)-Qtag-Bi according to Example 7 and was tested in a sandwich immuno assay (see FIG. 6). The Fab fragment mAb<TnT>rM-11-7(A102W)-Fab(IgG1)-Qtag-Bi was compared to the biotinylated wild type Fab-fragment of MAB11-7 (i.e. comprising a CDR3 of SEQ ID NO: 16) as comprised in the commercially available Roche Elecsys® assay, catalogue number 05092744190 (Roche Diagnostics GmbH, Mannheim, Germany). These biotinylated reagents were used as reagent 1 (RI) in the corresponding assay protocol. The ruthenylated detection antibody was the one comprised in the Roche Elecsys® assay, catalogue number 05092744190 (Roche Diagnostics GmbH, Mannheim, Germany). The ruthenylated detection antibody corresponds to the Elecsys® R2 reagent.
(§2) The assay follows assay protocol 2 of the cobas e analyzers, where sample, R1 and R2 are mixed in a first step for 9 min incubation, then the streptavidin coated magnetic beads are added in a second step for another 9 min incubation. […]
(§3) Elecsys® streptavidin-coated magnetic beads were always used in combination with one of the RI and R2 reagent bottles. Samples measured included sample diluent (Diluent Universal=buffer blank,) and the TnT Elecsys® assay commercial calibrators (Call ([…] recTnT) and Cal2 ([…] recTnT)).

human cardiac troponin T [3] = molecular target: T1, human cardiac troponin T; test: Elecsys ECL sandwich immunoassay, biotinylated Fab as capture reagent R1, ruthenylated commercial detection antibody; reference: biotinylated wild type Fab of MAB11-7
Protocol: as §1
Measurements were performed on a Cobas E170 Module using the Troponin T hs assay protocol with a blank control (Diluent Universal, Id. 11732277122, Diluent Multi Assay, Id. 03609987170, Roche Diagnostics GmbH, Mannheim, Germany), Call and Cal2 from Troponin T hs CalSet (Id. 05092752190, Roche Diagnostics GmbH, Mannheim, Germany) using the Troponin T hs assay specifications. […]

human cardiac troponin T [4] = molecular target: T1, human cardiac troponin T; test: Elecsys ECL sandwich immunoassay, calibrator Cal1 (recTnT), reference: biotinylated wild type Fab of MAB11-7
Protocol: as §1, §2, §3

Row | Binder | Kd (human cardiac troponin T [1]) | koff (human cardiac troponin T [1]) | kon (human cardiac troponin T [1]) | t½ [min] (complex half-life) (human cardiac troponin T [1]) | fold increase of Cal-2 signal against parental (human cardiac troponin T [2]) | fold increase in sensitivity (signal to noise) against parental (human cardiac troponin T [3]) | fold increase of Cal-1 signal against parental (human cardiac troponin T [4])
1 | mAb<TnT>rM-11-7 Fab A102D (Fab, V domains shown, Murine CH1 and CL, E. coli periplasmic lysate) VH: QIQLVQSGPELKKPGETVKISCKASGYTFTDFSMHWVKQAPGKGLKWMGWINTETGEPTYADDFKGRFAFSLETSATTAYLQINNLKNEDTATYFCVRSHDMDYWGQGTSVTVSS VL: not shown | 15 nM | 0.029 s⁻¹ | 1.9e+06 M⁻¹ s⁻¹ | 0.4 min | – | – | –
2 | mAb<TnT>rM-11-7 Fab A102F (Fab, V domains shown, Murine CH1 and CL, E. coli periplasmic lysate) VH: QIQLVQSGPELKKPGETVKISCKASGYTFTDFSMHWVKQAPGKGLKWMGWINTETGEPTYADDFKGRFAFSLETSATTAYLQINNLKNEDTATYFCVRSHFMDYWGQGTSVTVSS VL: not shown | 1 nM | 0.0012 s⁻¹ | 900000 M⁻¹ s⁻¹ | 10 min | – | – | –
3 | mAb<TnT>rM-11-7 Fab A102H (Fab, V domains shown, Murine CH1 and CL, E. coli periplasmic lysate) VH: QIQLVQSGPELKKPGETVKISCKASGYTFTDFSMHWVKQAPGKGLKWMGWINTETGEPTYADDFKGRFAFSLETSATTAYLQINNLKNEDTATYFCVRSHHMDYWGQGTSVTVSS VL: not shown | 8 nM | 0.0069 s⁻¹ | 830000 M⁻¹ s⁻¹ | 2 min | – | – | –
4 | mAb<TnT>rM-11-7 Fab A102L (Fab, V domains shown, Murine CH1 and CL, E. coli periplasmic lysate) VH: QIQLVQSGPELKKPGETVKISCKASGYTFTDFSMHWVKQAPGKGLKWMGWINTETGEPTYADDFKGRFAFSLETSATTAYLQINNLKNEDTATYFCVRSHLMDYWGQGTSVTVSS VL: not shown | 13 nM | 0.009 s⁻¹ | 710000 M⁻¹ s⁻¹ | 1 min | – | – | –
5 | mAb<TnT>rM-11-7 Fab A102N (Fab, V domains shown, Murine CH1 and CL, E. coli periplasmic lysate) VH: QIQLVQSGPELKKPGETVKISCKASGYTFTDFSMHWVKQAPGKGLKWMGWINTETGEPTYADDFKGRFAFSLETSATTAYLQINNLKNEDTATYFCVRSHNMDYWGQGTSVTVSS VL: not shown | 17 nM | 0.056 s⁻¹ | 3.3e+06 M⁻¹ s⁻¹ | 0.2 min | – | – | –
6 | mAb<TnT>rM-11-7 Fab A102E (Fab, V domains shown, Murine CH1 and CL, E. coli periplasmic lysate) VH: QIQLVQSGPELKKPGETVKISCKASGYTFTDFSMHWVKQAPGKGLKWMGWINTETGEPTYADDFKGRFAFSLETSATTAYLQINNLKNEDTATYFCVRSHEMDYWGQGTSVTVSS VL: not shown | 9 nM | 0.0098 s⁻¹ | 1.1e+06 M⁻¹ s⁻¹ | 1 min | – | – | –
7 | mAb<TnT>rM-11-7 Fab A102W (Fab, V domains shown, Murine CH1 and CL, E. coli periplasmic lysate) VH: QIQLVQSGPELKKPGETVKISCKASGYTFTDFSMHWVKQAPGKGLKWMGWINTETGEPTYADDFKGRFAFSLETSATTAYLQINNLKNEDTATYFCVRSHWMDYWGQGTSVTVSS VL: not shown | < 0.01 nM | < 1e-05 s⁻¹ | 1.1e+06 M⁻¹ s⁻¹ | > 1160 min | – | – | –
8 | mAb<TnT>rM-11-7 Fab A102Y (Fab, V domains shown, Murine CH1 and CL, E. coli periplasmic lysate) VH: QIQLVQSGPELKKPGETVKISCKASGYTFTDFSMHWVKQAPGKGLKWMGWINTETGEPTYADDFKGRFAFSLETSATTAYLQINNLKNEDTATYFCVRSHYMDYWGQGTSVTVSS VL: not shown | 5 nM | 0.0033 s⁻¹ | 710000 M⁻¹ s⁻¹ | 3 min | – | – | –
9 | mAb<TnT>rM-11-7(A102W)-Fab(IgG1)-Qtag-Bi (Fab, V domains shown, Murine Fab (IgG1) with a Qtag, produced in HEK FreeStyle 293-F cells, site-directed conjugated to biotin with Kutzneria albida transglutaminase; also called maturated biotinylated mAb<TnT>rM-11-7(A102W)-Fab) VH: QIQLVQSGPELKKPGETVKISCKASGYTFTDFSMHWVKQAPGKGLKWMGWINTETGEPTYADDFKGRFAFSLETSATTAYLQINNLKNEDTATYFCVRSHWMDYWGQGTSVTVSS VL: not shown | – | – | – | – | 1.8 fold | ~2 fold | 1.7 fold
10 | mAb<TnT>rM-11-7 Fab A102R (Fab, V domains shown, Murine CH1 and CL, E. coli periplasmic lysate) VH: QIQLVQSGPELKKPGETVKISCKASGYTFTDFSMHWVKQAPGKGLKWMGWINTETGEPTYADDFKGRFAFSLETSATTAYLQINNLKNEDTATYFCVRSHRMDYWGQGTSVTVSS VL: not shown | 2500 nM | 0.042 s⁻¹ | 16000 M⁻¹ s⁻¹ | 0.3 min | – | – | –
11 | mAb<TnT>rM-11-7 Fab A102I (Fab, V domains shown, Murine CH1 and CL, E. coli periplasmic lysate) VH: QIQLVQSGPELKKPGETVKISCKASGYTFTDFSMHWVKQAPGKGLKWMGWINTETGEPTYADDFKGRFAFSLETSATTAYLQINNLKNEDTATYFCVRSHIMDYWGQGTSVTVSS VL: not shown | 18 nM | 0.032 s⁻¹ | 1.7e+06 M⁻¹ s⁻¹ | 0.4 min | – | – | –
